Kd, ΔTm (shift of melting temperature) and fold stronger affinity than mTIDM data for two molecules are collected here from patent publication US20210361740A1.

Test [1] concerns the target cMyc-tagged C-terminal TLR2 (cTLR2) recombinant protein, C-terminal TIR domain of TLR2 (640-784 amino acids) (UniProt Q9QUN7). Nature of the test: SPR, cTLR2 immobilised, peptide as analyte; equilibrium response versus peptide concentration; mTIDM (mutated) peptide. In general terms: In SPR one partner is held on a chip, and binding of the other changes the refractive index at the surface.

The target is the same in test [2]. In words: thermal shift assay of cTLR2 with mTIDM peptide.
Test [3] has the same target. Nature of the test: SPR, cTLR2 immobilised; reference mTIDM.
Test [4] shares this target. In words: SPR, cTLR2 immobilised, peptide as analyte; equilibrium response versus peptide concentration; wtTIDM peptide.
For test [5] the target is unchanged. Nature of the test: thermal shift assay of cTLR2 with wtTIDM peptide.

What is called Kd is a measure of binding affinity in units of concentration.

cMyc-tagged C-terminal TLR2 (cTLR2) recombinant protein, C-terminal TIR domain of TLR2 (640-784 amino acids), sequence (Q9QUN7 640-784 limits assumed, form in doubt): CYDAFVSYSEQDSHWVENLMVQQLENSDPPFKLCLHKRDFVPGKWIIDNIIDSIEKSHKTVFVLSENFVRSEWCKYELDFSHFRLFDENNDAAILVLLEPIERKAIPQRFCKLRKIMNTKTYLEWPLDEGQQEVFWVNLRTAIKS

For DRQIKIWFQNRRMKWKKPGWHQD [Mutated (m) TIDM peptide], the dissociation constant Kd in test [1] stood at 19 µM. Further, the ΔTm (shift of melting temperature) in test [2] was 0.87 ° C.

Turning to DRQIKIWFQNRRMKWKKPGAHQK [Wild type (wt) TIDM peptide (TLR2-interacting domain of MyD88 joined to Antennapedia homeodomain)], the fold stronger affinity than mTIDM in test [3] stood at 2.5 fold. In addition, the dissociation constant (Kd) in test [4] was determined as 8 µM. In addition, in test [5], the ΔTm (shift of melting temperature) was 4.96 ° C.
